Assay results published in paper PMC10593859 (2023).

Legend:
Ad26 viral particles [1] = experiment: SPR; pre-vaccination human serum (1:5) flowed over Ad26 first
Ad26 viral particles [2] = experiment: as above; remark: listed apart in the source
Ad26 viral particles [3] = experiment: SPR; post-Ad26 vaccination human serum (1:5) flowed over Ad26 first
Ad26 viral particles [4] = experiment: as above; remark: listed apart in the source

B1: recombinant human platelet factor 4 (PF4) (natural protein)
chain: EAEEDGDLQCLCVKTTSQVRPRHITSLEVIKAGPHCPTAQLIATLKNGRKICLDLQAPLYKKIIKKLLES
Binder B1 has a Kd (Ad26 viral particles [1]) of 233 nM, a Kd (Ad26 viral particles [2]) of 122 nM and a Kd (Ad26 viral particles [3]) of 612 nM. It also gave a Kd (Ad26 viral particles [4]) of 478 nM.
